Experimental data published in US20170107282A1 (CELL MEDICA SWITZERLAND, published 2017).

T1: recombinant human TNF beta/TNFSF1 (human, UniProt P01374 35-205, limits assumed)
T1 construct: Bought protein; also called R&D systems cat; No. 211-TB-010/CF
T1 sequence (looked up): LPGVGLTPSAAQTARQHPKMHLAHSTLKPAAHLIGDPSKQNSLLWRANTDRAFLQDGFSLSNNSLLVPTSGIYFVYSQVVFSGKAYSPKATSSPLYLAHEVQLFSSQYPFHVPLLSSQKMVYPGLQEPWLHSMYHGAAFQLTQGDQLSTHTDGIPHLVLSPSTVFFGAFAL

T2: recombinant human lymphotoxin α2/β1 (R&D systems, cat. No 679-TX-010/CF) (human, UniProt P01374 35-205; Q06643 49-244, limits assumed)
T2 construct: Bought heterotrimer; also called human lymphotoxin alpha2/beta1
T2 sequence (looked up) 1: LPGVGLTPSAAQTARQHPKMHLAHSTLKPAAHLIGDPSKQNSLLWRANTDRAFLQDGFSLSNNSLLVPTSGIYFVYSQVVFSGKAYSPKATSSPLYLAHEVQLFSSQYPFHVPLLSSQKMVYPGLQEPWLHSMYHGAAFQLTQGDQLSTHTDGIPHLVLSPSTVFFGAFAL
T2 sequence (looked up) 2: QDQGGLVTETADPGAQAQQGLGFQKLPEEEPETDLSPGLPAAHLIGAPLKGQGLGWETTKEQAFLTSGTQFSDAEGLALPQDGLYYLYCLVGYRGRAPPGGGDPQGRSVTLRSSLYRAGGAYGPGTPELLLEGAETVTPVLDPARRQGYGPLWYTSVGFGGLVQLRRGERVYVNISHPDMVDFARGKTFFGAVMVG

T3: recombinant human lymphotoxin α2/β1 (R&D systems, cat. No 678-LY-010/CF) (human, UniProt P01374 35-205; Q06643 49-244, limits assumed)
T3 construct: This second one is probably α1/β2, so copy numbers are left open; also called second lymphotoxin preparation
T3 sequence (looked up) 1: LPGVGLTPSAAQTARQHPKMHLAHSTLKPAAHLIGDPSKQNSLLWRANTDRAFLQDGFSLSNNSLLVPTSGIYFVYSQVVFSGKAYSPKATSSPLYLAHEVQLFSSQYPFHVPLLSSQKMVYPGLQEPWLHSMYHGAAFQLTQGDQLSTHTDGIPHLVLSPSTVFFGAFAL
T3 sequence (looked up) 2: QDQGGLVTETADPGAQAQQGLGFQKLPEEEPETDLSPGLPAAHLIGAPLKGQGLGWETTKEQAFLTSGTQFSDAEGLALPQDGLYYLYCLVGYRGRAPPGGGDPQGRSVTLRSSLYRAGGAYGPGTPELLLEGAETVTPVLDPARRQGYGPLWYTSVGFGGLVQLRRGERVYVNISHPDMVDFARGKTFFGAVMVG

T4: recombinant human CD40 ligand/TNFSF5 (human, UniProt P29965 108-261, limits assumed)
T4 construct: Bought protein; also called R&D systems cat; No. 6420-CL-025/CF
T4 sequence (looked up): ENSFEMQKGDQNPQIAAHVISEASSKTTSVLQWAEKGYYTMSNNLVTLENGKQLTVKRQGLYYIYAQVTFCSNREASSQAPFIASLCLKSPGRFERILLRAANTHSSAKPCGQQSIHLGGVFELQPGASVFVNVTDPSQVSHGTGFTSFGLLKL

B1: scFv1 (scFv)
scFv: EIVMTQSPSTLSASVGDRVIITCQASQSISSYLAWYQQKPGKAPKLLIYWASTLASGVPSRFSGSGSGTEFTLTISSLQPDDFATYYCQSYYYTSNNSDGFWAFGQGTKLTVLGGGGGSGGGGSGGGGSGGGGSEVQLVESGGGLVQPGGSLRLSCKASGIDFSNSGITWVRQAPGKGLEWVGYIYPGFGIRNYANSVRGRFTISRDTSKNTVYLQMNSLRAEDTAVYYCARDPIYASSSGYADIWGQGTLVTVSS
B2: positive control scFv DLX105 (scFv)
scFv: MADIVMTQSPSSLSASVGDRVTLTCTASQSVSNDVVWYQQRPGKAPKLLIYSAFNRYTGVPSRFSGRGYGTDFTLTISSLQPEDVAVYYCQQDYNSPRTFGQGTKLEVKRGGGGSGGGGSGGGGSSGGGSQVQLVQSGAEVKKPGASVKVSCTASGYTFTHYGMNWVRQAPGKGLEWMGWINTYTGEPTYADKFKDRFTFSLETSASTVYMELTSLTSDDTAVYYCARERGDAMDYWGQGTLVTVSS

Key:
[1] = molecular target: T5, cynomolgus monkey TNF alpha (cynomolgus monkey, UniProt P79337 77-233); test: ELISA, TNF alpha protein coated, Protein L-HRP detection
T5 construct: Bought protein; also called Sinobiological cat. no; 90018 CNAE
Description: (§1) The cross-reactivity profile of the five selected scFvs to TNF alpha homologs of other species than human beings was assessed using ELISA. The following recombinantly expressed TNF alpha proteins were investigated: rhesus macaque (R&D Systems, USA, cat. no. 1070-RM-025/CF), cynomolgus monkey (Sinobiological, cat.no. 90018 CNAE), canine (Kingfisher Biotech, USA, cat. no. RP0261D-025) and feline (R&D systems, cat. No, 2586FTCF), rabbit (Kingfisher, cat. no RPO429U), rat (Peprotech, cat. no 400-14) murine (Peprotech, cat. no 315-01A), guinea pig (R&D Systems, cat. no 5035-TG-025/CF), porcine (R&D Systems, cat. no 690-PT-025/CF). Briefly, proteins were coated at a concentration of 2 mcg/mL over night at 4° C. on Maxisorp 96-well microplates in PBS pH 7.2. After blocking with 5% non-fat dry milk, increasing concentrations of scFv (0.1, 0.3 and 1.0 mcg/mL) were added to the wells. Successful coating of every protein was separately confirmed with TNF alpha-specific control antibodies. Whereas scFv1 was detected by Protein L-HRP (Sigma-Aldrich, USA, cat. no. P3226), the full-length IgG control antibodies were detected by either Streptavidin-HRP (BD Pharmingen, USA, cat. no. 554060) or other eligible secondary antibodies labelled with HRP. The ELISA was developed with BM Blue POD substrate (Roche Applied Science) and the absorbance was measured at 450 nm. The cross-reactivity of scFvs 1-5 was compared to the scFv DLX2481. […] The scFv DLX2481 recognized only recombinant human TNF alpha. In addition, the cross-reactivity of scFv1 to TNF family members was measured by a direct ELISA with coated recombinant human lymphotoxin α2/β1 (R&D systems, USA, cat. No 679-TX-010/CF), recombinant human lymphotoxin α2/β1 (R&D systems, cat. No 678-LY-010/CF), recombinant human CD40 ligand/TNFSF5 (R&D systems, cat. No. 6420-CL-025/CF) and recombinant human TNF beta/TNFSF1 (R&D systems, cat.

canine TNF alpha = molecular target: T6, canine TNF alpha (canine, UniProt P51742 77-233); test: as above
T6 construct: Bought protein; also called dog TNF alpha; Kingfisher Biotech cat. no; RP0261D-025
Description: as §1

feline TNF alpha = molecular target: T7, feline TNF alpha (feline, UniProt P19101 77-233); test: as above
T7 construct: Bought protein; also called R&D systems cat; No 2586FTCF
Description: as §1

rhesus macaque TNF alpha = molecular target: T8, rhesus macaque TNF alpha (rhesus macaque, UniProt P48094 77-233); test: as above
T8 construct: Bought protein; also called R&D Systems cat. no; 1070-RM-025/CF
Description: as §1

[2] = molecular target: T1, recombinant human TNF beta/TNFSF1; test: direct ELISA, protein coated
Description: as §1

[3] = molecular target: T2, recombinant human lymphotoxin α2/β1 …; test: direct ELISA, protein coated
Description: as §1

[4] = molecular target: T3, recombinant human lymphotoxin α2/β1 …; test: direct ELISA, protein coated
Description: as §1

[5] = molecular target: T4, recombinant human CD40 ligand/TNFSF5; test: direct ELISA, protein coated
Description: as §1

[6] = molecular target: transmembrane (tm) human TNF alpha, A1-12 variant, on CHO cells (human, UniProt P01375 1-233); test: cell-based or functional assay
[7] = molecular target: recombinant human (rh) TNF alpha (human, UniProt P01375 77-233, limits assumed); test: cell-based or functional assay
Chain of recombinant human (rh) TNF alpha (P01375 77-233 limits assumed): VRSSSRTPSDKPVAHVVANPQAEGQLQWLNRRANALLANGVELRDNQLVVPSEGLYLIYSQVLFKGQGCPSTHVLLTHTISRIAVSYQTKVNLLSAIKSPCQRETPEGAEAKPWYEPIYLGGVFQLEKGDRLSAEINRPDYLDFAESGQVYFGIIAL

Chain of transmembrane (tm) human TNF alpha, A1-12 variant, on CHO cells (P01375 other isoform, or with tags, fused parts or gaps mutant limits assumed): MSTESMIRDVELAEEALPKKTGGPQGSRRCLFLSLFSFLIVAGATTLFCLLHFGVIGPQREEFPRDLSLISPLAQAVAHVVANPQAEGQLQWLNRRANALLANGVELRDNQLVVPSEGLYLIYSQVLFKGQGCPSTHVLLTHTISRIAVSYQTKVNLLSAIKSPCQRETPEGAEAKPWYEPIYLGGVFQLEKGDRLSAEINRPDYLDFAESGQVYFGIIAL
T8 sequence (P48094 77-233 limits assumed): as the sequence (P01375 77-233 limits assumed) above, with R44T, T72N, R138L counted along it
T6 sequence (P51742 77-233 limits assumed): as the sequence (P01375 77-233 limits assumed) above, with R2K, Q21E, N30S, R44T, V49I, E53D, I83F, A109T, R138L, D140N counted along it
T5 sequence (P79337 77-233 limits assumed): as the sequence (P01375 77-233 limits assumed) above, with L37V, R44T, T72N, R138L counted along it
T7 sequence (P19101 77-233 limits assumed): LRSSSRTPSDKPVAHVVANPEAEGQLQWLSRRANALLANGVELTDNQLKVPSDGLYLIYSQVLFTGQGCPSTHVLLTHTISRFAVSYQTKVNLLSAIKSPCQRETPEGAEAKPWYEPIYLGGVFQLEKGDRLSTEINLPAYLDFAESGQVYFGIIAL

Binder | binding result [1] | binding result (canine TNF alpha) | binding result (feline TNF alpha) | binding result (rhesus macaque TNF alpha) | binding result [2] | binding result [3] | binding result [4] | binding result [5] | IC50, inhibition of tmTNF alpha activity on HEK-Dual TNF alpha-sensitive reporter cells (luciferase) [6] [nM] | IC50, inhibition of rhTNF alpha (1.4 pM) cytotoxicity on PK-15 cells [7] [pM]
B1 | binds | binds | binds | binds | no binding (tested: 40 nM) | no binding (tested: 40 nM) | no binding (tested: 40 nM) | no binding (tested: 40 nM) | 50 | 30
B2 | – | – | – | – | – | – | – | – | 32 | 260
